T1: hu-CD96 isoform 1 on HEK293T cells (human, UniProt P40200 22-585)
T1 construct: Origene RC213845, transient expression; also called HEK293T-CD96 (iso1)
T1 sequence: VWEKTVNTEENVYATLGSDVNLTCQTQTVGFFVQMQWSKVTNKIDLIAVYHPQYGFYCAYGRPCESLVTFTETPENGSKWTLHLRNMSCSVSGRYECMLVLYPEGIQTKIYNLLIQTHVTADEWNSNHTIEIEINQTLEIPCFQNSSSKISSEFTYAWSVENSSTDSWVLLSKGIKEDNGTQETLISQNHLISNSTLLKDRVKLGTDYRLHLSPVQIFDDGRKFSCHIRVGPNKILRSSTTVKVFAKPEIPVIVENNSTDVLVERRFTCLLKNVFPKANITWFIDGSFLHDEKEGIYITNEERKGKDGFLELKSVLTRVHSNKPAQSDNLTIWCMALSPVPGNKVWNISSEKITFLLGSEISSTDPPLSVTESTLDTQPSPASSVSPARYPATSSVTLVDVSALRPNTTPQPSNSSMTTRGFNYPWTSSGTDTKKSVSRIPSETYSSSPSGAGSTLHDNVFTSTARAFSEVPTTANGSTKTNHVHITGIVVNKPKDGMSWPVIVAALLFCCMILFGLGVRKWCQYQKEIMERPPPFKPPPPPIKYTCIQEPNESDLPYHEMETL

T2: hu-CD96 isoform 2 on CHO cells (human, UniProt P40200 22-585)
T2 construct: also called CHO-CD96 (isoform 2); CD96-CHOs
T2 sequence: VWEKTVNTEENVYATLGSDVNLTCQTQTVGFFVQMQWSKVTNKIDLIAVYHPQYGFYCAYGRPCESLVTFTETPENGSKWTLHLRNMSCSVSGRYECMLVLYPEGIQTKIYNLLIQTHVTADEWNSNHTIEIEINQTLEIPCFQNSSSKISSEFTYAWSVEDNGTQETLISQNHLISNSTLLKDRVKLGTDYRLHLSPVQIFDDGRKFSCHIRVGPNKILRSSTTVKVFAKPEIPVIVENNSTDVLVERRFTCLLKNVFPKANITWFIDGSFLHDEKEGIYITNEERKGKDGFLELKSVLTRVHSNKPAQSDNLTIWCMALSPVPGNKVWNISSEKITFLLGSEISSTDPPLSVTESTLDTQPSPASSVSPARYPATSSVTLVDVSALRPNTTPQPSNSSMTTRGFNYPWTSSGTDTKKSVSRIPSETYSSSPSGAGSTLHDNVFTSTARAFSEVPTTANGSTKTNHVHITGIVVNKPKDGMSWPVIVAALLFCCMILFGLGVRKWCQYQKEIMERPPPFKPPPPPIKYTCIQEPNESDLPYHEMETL


What was measured:
[1] = target: T1, hu-CD96 isoform 1 on HEK293T cells; assay: FACS, % positive curve
Procedure: (§1) Isoform 1 of hu-CD96 (Origene, catalog #RC213845) was transiently expressed in HEK293T cells following standard lipofectamine or Fugene transfection protocol. […] Cells were washed, and binding was detected by incubation with anti-mouse IgG-FITC (Biolegend, catalog #406001) for 20 minutes at 4° C. Cell binding was analyzed by flow cytometry with a CytoFLEX (Beckman Coulter). Binding curves were calculated as a percentage of cells positive for bound antibody.

[2] = target: T1, hu-CD96 isoform 1 on HEK293T cells; assay: FACS, Ab 50 nM
Procedure: as §1

[3] = target: T2, hu-CD96 isoform 2 on CHO cells; assay: FACS, CD155-Fc-FLAG 10 nM, Ab 20 nM
Procedure: (§2) CHO cells stably expressing isoform 2 of hu-CD96 (Origene, catalog #RC221005) were incubated with anti-CD96 antibodies for 20 minutes at 4° C. The cells were washed, and then incubated with 10 nM human CD155-Fc-FLAG for 30 minutes at 4° C. Cells were washed, and then human CD155-Fc-FLAG binding was detected by incubation with anti-FLAG-APC (Columbia Biosciences, catalog #D3-1718-1MG) for 20 minutes at 4° C. Cell binding was analyzed by flow cytometry with a CytoFLEX (Beckman Coulter). CD155 binding is represented as median fluorescence intensity (MedFI).
(§3) As shown in Table 20 (below), the anti-CD96 antibodies, mAb1.v7.NGS8, mAb1.v7.NGS9, mAb1.v7.NGS10, mAb1.v7.NGS11, and h10G1 inhibited soluble hu-CD155 binding to CD96-expressing CHO cells dose-dependently and potently. The antibody NK92.39 (Fuchs et al., 2004; Biolegend catalog #338405) inhibited receptor binding similarly.

[4] = target: T2, hu-CD96 isoform 2 on CHO cells; assay: FACS, blocks 10 nM CD155-Fc-FLAG binding to CD96-CHO
Procedure: as §2, §3

[5] = target: T2, hu-CD96 isoform 2 on CHO cells; assay: FACS, CD155-Fc-FLAG 10 nM, Ab 0.8 nM
Procedure: as §2, §3

[6] = target: T2, hu-CD96 isoform 2 on CHO cells; assay: FACS, CD155-Fc-FLAG 10 nM, Ab 0.16 nM
Procedure: as §2, §3

Binder | EC50 [1] [nM] | % positive [2] [%] | CD155-Fc binding (MedFI) [3] [MedFI] | IC50 [4] [nM] | CD155-Fc binding (MedFI) [5] [MedFI] | CD155-Fc binding (MedFI) [6] [MedFI]
7E5, purified hybridoma antibody (antibody, V domains shown, murine hybridoma IgG) VH: QVQLKESGPGLVAPSQSLSIICTVSGFSLTNYGIHWIRQPPGKGLEWLGIIWAGGSTNYNSALMSRLTISKDNSKSQVFLKMNSLQTNDTAIYYCARVSMMGFAYWGQGTLVTVSA VL: QAVVTQESALTTSPGETVTLTCRSSTGAVTTSNYANWVQEKPDHLFTGLIGGTNNRAPGVPARFSGSLIGDKAALTITGAQTEDEAIYFCSLWYGSHWVFGGGTKLTVL | 0.71 | 52.1 |  |  |  | 
mAb1.v7 IgG (humanized 12F8) (antibody, V domains shown, human IgG1 N297G) VH: EVQLVQSGAEVKKPGASVKVSCKASGFTFTNNWMHWVRQAPGQGLEWIGMIHPNSGITNINEKFKNRVTMTTDTSTSTAYMELRSLRSEDTAVYYCRSDGTYEGYFDYWGQGTLVTVSS VL: DIQLTQSPSSLSASVGDRVTITCKASQNVGTAIVWYQQKPGKAPKVLIYSASTRYTGVPSRFSGSGSGTDFTLTISSLQPEDFATYYCQQYSSSPLTFGQGTKVEIKG | 2.6 | 61 |  |  |  | 
mAb1.v7.NGS11 IgG (antibody, V domains shown, human IgG1 N297G) VH: EVQLVQSGAEVKKPGASVKVSCKASGFTFTNNFMHWVRQAPGQGLEWIGFIHANSGITNINEKFKNRVTMTTDTSTSTAYMELRSLRSEDTAVYYCRSDGVYEGYFDYWGQGTLVTVSS VL: DIQLTQSPSSLSASVGDRVTITCKASQNVGTAIVWYQQKPGKAPKVLIYSASTRYTGVPSRFSGSGSGTDFTLTISSLQPEDFATYYCQQYSSSPLTFGQGTKVEIKG |  |  | 4460 | 0.46 | 23600 | 51900
mAb1.v7.NGS9 IgG (antibody, V domains shown, human IgG1 N297G) VH: EVQLVQSGAEVKKPGASVKVSCKASGFTFTNNFMHWVRQAPGQGLEWIGMIHANSGITNINEKFKNRVTMTTDTSTSTAYMELRSLRSEDTAVYYCRSDGVYEGYFDYWGQGTLVTVSS VL: DIQLTQSPSSLSASVGDRVTITCKASQNVGTAIVWYQQKPGKAPKVLIYSASTRYTGVPSRFSGSGSGTDFTLTISSLQPEDFATYYCQQYSSSPLTFGQGTKVEIKG |  |  | 4260 | 0.91 | 32200 | 54600
mAb1.v7.NGS10 IgG (antibody, V domains shown, human IgG1 N297G) VH: EVQLVQSGAEVKKPGASVKVSCKASGFTFTNNFMHWVRQAPGQGLEWIGFIHANSGITNINEKFKNRVTMTTDTSTSTAYMELRSLRSEDTAVYYCRSDGIYEGYFDYWGQGTLVTVSS VL: DIQLTQSPSSLSASVGDRVTITCKASQNVGTAIVWYQQKPGKAPKVLIYSASTRYTGVPSRFSGSGSGTDFTLTISSLQPEDFATYYCQQYSSSPLTFGQGTKVEIKG |  |  | 4940 | 0.57 | 23600 | 54100
h10G1 IgG (humanized 10G1) (antibody, V domains shown, human IgG1 N297G) VH: EIQLVQSGSELKKPGASVKVSCKASGYPFTTYGMSWVRQAPGQGLEWMGWINTDSGVPTYADDFKGRFVFSLDTSVSTAYLQISSLKAEDTAVYFCARNIYYGWGNFDYWGQGTLVTVSS VL: EIVMTQSPDFQSVTPKEKVTITCRASQDIYRNLHWYQQKPDQTPKLLIKHASDSISGIPSRFSGSGSGTDFTLTINSLEAEDAAAYYCLQGYSMPYTFGGGTKVEIKG |  |  | 4860 | 0.06 | 5870 | 21200
10G1 (clone 10G1.3G8), purified hybridoma antibody (antibody, V domains shown, murine hybridoma IgG) VH: QIQLVQSGPELKKPGETVKISCKASGYPFTTYGMSWVKQAPGKGLKWMGWINTDSGVPTYADDFKGRFAFSLETSANTAYLQINSLKNEDAATYFCARNIYYGWGNFDYWGQGTILTVSS VL: DILMTQSPTTLSVTPGETVSLSCRASQDIYRNLHWYQQKSQGTPRLLIKHASDSISGIPSRFTGSGSGTDFTLSINSVKPEDEGIYYCLQGYSMPYTFGGGTKLEIK | 0.24 | 56.1 |  |  |  | 
9H4, purified hybridoma antibody (antibody, V domains shown, murine hybridoma IgG) VH: EVQLLETGGGLVKSGGSLKLSCAASGFTFSDYYMYWVRQTPEKRLEWVAAISDDGTYTYYPDSVKGRFTISRDNANNYLYLQMSSLKSEDTAIYYCAKAGSYDYFDVWGAGTTVTVSS VL: DIVLTQSPASLAVSLGQRAIISCKASQSVTFADTGLMHWYQQKPGQQPKLLIYRASNLEVGVPTRFSGSGSGTDFTLNIHPVEEEDVATYYCQQSREYPWTFGGGTKLEIK | 2.1 | 57.8 |  |  |  | 

— US12365732 (23ANDME, dated 2025)
